53 sequences from the supplement of paper PMC10567573 can be followed below.

± gives the standard deviation.

The series can be described thus: protein stability index of a GFP-peptide fusion (GPS, HEK-293T) (PSI 1-6); higher = more stable.
The mark [1] stands for this setting: treatment: DMSO, c terminus: a fixed tail appended.
Setting [2] is: treatment: MLN4924 1 uM, 8 h, c terminus: a fixed tail appended.
Where [3] appears, read: treatment: DMSO, c terminus: native.
Setting [4] is: treatment: MLN4924 1 uM, 8 h, c terminus: native.
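Further: 24-mer peptide tiles fused after GFP, lentivirally expressed, FACS-sorted into six equal bins by GFP/DsRed ratio, decoded by Illumina sequencing, PSI is the read-weighted mean bin number.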

Regarding AHAGAVHNGKIYISGGVHNGEYVP [KLHL14], the protein stability index is, setting by setting: under setting [1], 3.03 ± 0.28; under setting [2], 2.82 ± 0.41. The corresponding values for LVENAKNFPQCVLEISDQEVLEWY [EFHC1] are 2.96 ± 0.23 and 2.87 ± 0.23. For KLCTAHMCSTLEHNCAHFCINIPG [MATN2], in that order: 2.22 ± 0.38 and 2.22 ± 0.29. For HNIPLETIIPILQHLKYKEHPEAL [INTS3], in that order: 2.51 ± 0.31 and 2.55 ± 0.38. VVLGNIIKKKGWRRSSLVITTKIF [KCNAB2] came in with a protein stability index under setting [1] of 2.86 ± 0.34 and a protein stability index under setting [2] of 2.74 ± 0.55. In the case of EAMFCDFPKINHGILYDEEKYKPF [CFHR2], the protein stability index is, setting by setting: under setting [1], 2.49 ± 0.34; under setting [2], 2.81 ± 0.26. For SPEIMASVLNGKFANLIKEFVIID [CDC25A], in that order: 2.47 ± 0.29 and 2.23 ± 0.19.

In the case of KEMTQKLEALHLEALCEEDLLLWI [DENND6A], the protein stability index by setting is: under setting [1], 2.23 ± 0.28; under setting [2], 2.26 ± 0.32. Sequence QIKRKARNEGRNRRRQQVLPLKS [CDKL4] gave a protein stability index under setting [3] of 2.87 ± 0.24 and a protein stability index under setting [4] of 3.44 ± 0.35. In the case of VPYHIARIPYTKSQTEAHYSCQSK [P2RY14], the protein stability index reads like this: under setting [1], 3.47 ± 0.17; under setting [2], 3.53 ± 0.36. For EKKRKEEEERRRREEEERERLQKE [ACBD3], in that order: 5.45 ± 0.36 and 5.49 ± 0.25. For PGCGSVPGSGSGPGPGSGPGSGPG [SPAG8], in that order: 4.96 ± 0.062 and 4.99 ± 0.25. The corresponding values for KISYIGLMTQSSLETHHYVDCGGN [TMEM106C] are 2.48 ± 0.24 and 2.45 ± 0.24. On to DRLQVFHKRAIMPYGVYKKQQKDP [ATE1], for which the protein stability index by setting is: under setting [1], 3.17 ± 0.39; under setting [2], 3.34 ± 0.22. For SSIPRRDDFFRHESGEHFRSLLGY [RAD54B], in that order: 2.65 ± 0.21 and 2.57 ± 0.33. On to LLLLYFMQVIAIVLYLMMPIVNIS [PHTF1], for which the protein stability index is, setting by setting: under setting [1], 3.15 ± 0.42; under setting [2], 3.06 ± 0.52. For FESFPAGSTLIFYKYCDHENAAFK [TOR1AIP2], in that order: 2.17 ± 0.14 and 2.17 ± 0.23. On to ASVPKVETVKSDNKDDDIDIDAI [EIF5], for which the protein stability index by setting is: under setting [3], 5.59 ± 0.17; under setting [4], 5.53 ± 0.22. On to APNRFFQKLNVFKNFIGLLQNQNF [NLN], for which, under setting [2], the protein stability index worked out at 2.24 ± 0.82. Consider QLELRAGAERLDALLADEERCLSC [TRADD], for which the protein stability index runs as follows: under setting [1], 3.98 ± 0.25; under setting [2], 4.24 ± 0.18. For TQPPDESCSQNLLITQQIIPVLYC [P2RY14], in that order: 2.28 ± 0.25 and 2.23 ± 0.22. For IPGLPGLRGLPGERGTPGLPGPKG [SCARA5], in that order: 4.34 ± 0.41 and 4.42 ± 0.22.

For ESLPHRLSCLGQQQQEPPLAMGTV [PLAGL1], the protein stability index by setting is: under setting [1], 3.92 ± 0.17; under setting [2], 4.04 ± 0.26.

As for SQVSWEQDLKLFLQEPGVFSPTPP [FCHSD1], the protein stability index is, setting by setting: under setting [1], 3.36 ± 0.4; under setting [2], 3.61 ± 0.1. In the case of YSIGRSVEGRHLYVLEFSDHPGIH [CPN1], the protein stability index stood at 2.07 ± 0.23 under setting [1] and 2.07 ± 0.12 under setting [2]. As to SLLCLLCSNSQEHGAHKHHPIEEA [TRIM43], the protein stability index runs as follows: under setting [1], 2.67 ± 0.2; under setting [2], 2.77 ± 0.21.

As to RGELSARQMHLARFLRMLLRLADE [RAD51], the protein stability index reads like this: under setting [1], 2.2 ± 0.27; under setting [2], 2.42 ± 0.4. In the case of QMQDDEQKTRLLEDSVSRLEKEIE [PALM], the protein stability index is, setting by setting: under setting [1], 5.11 ± 0.15; under setting [2], 4.97 ± 0.1. For PAGFRVSTLGTLQPPPAPPKKIMP [PPFIA4], in that order: 4.14 ± 0.42 and 4.07 ± 0.43. With ADISQMLVCTADGDIHLSPEEPAA [TAF7L], the protein stability index runs as follows: under setting [1], 4.93 ± 0.17; under setting [2], 4.94 ± 0.077. The corresponding values for ICTRKPEEIRGGGLLKYCSLLVHG [TENT5D] are 2.24 ± 0.43 and 2.03 ± 0.3.

Regarding AAPDCTPSLEAGNPAPAAPCPLGE [MYCL], the protein stability index under setting [1] turned out to be 5.42 ± 0.25 and the protein stability index under setting [2] is 5.49 ± 0.26. For AGIVRVFSGTPPPPVLSFRLVHTT [FCHO1], in that order: 1.99 ± 0.07 and 2.13 ± 0.57. The corresponding values for LSANLHGGAVVANYPYDKSFEHRV [CPN1] are 3.46 ± 0.27 and 3.5 ± 0.28. For LNHGASVNNTTLTNSTPLRAACFD [FEM1C], in that order: 3.98 ± 0.31 and 3.94 ± 0.14. Regarding GALEALELSPPLSPASHVDVDLTI [FOXJ1], the protein stability index is, setting by setting: under setting [1], 3.17 ± 0.23; under setting [2], 3.43 ± 0.36. For the sequence WCLRVNPKGLDDESKDYLSLYLLL [SPOPL], the protein stability index under setting [1] is 2.96 ± 0.41 and the protein stability index under setting [2] was found to be 3.08 ± 0.69. For LRLLVESDINSIRRILDELTLCKS [KRT34], in that order: 2.22 ± 0.5 and 2.16 ± 0.12.

As to IDIIPNPQERTLTLVDTGIGMTKA [HSP90AB1], the protein stability index came out at 3.55 ± 0.19 under setting [1] and 3.43 ± 0.51 under setting [2]. For LQSYQAEIIELRRTVNALEIELQA [KRT33B], the protein stability index turned out to be 2.59 ± 0.54 under setting [1] and 2.27 ± 0.3 under setting [2]. For ELLVAHAYTRYLGDLSGGQVLKKI [HMOX1], in that order: 2.23 ± 0.86 and 2.32 ± 0.3. The corresponding values for EFQERARKRIRTYLKSCRRMKKNG [NOL4L] are 3.31 ± 0.19 and 3.19 ± 0.23. The corresponding values for QPPSCQGEAAGSSLIGHLQTLSPD [DUSP5] are 4.76 ± 0.14 and 4.69 ± 0.13.

Take EVEEVENVQTEFPGEDENPEKASE [TRIM55]: the protein stability index under setting [1] was determined as 5.57 ± 0.39 and the protein stability index under setting [2] is 5.47 ± 0.52. The corresponding values for TAPQQKPIGKISKNKKKKLKKKQK [SRPK2] are 4.92 ± 0.32 and 4.84 ± 0.67.

On to IDPETKKHIPYREHKSLTGTARYM [CSNK1G3], for which the protein stability index under setting [1] amounted to 3.38 ± 0.45 and the protein stability index under setting [2] is 3.72 ± 0.18.

For RGVHCWVCDESVRKLSSAVRSGIV [PRIM1], the protein stability index was 2.24 ± 0.22 under setting [1] and 2.19 ± 0.14 under setting [2]. The corresponding values for ADDPDDGPVPGTPGLPGSTGNPKS [SPNS1] are 5.47 ± 0.39 and 5.49 ± 0.35. For IVIWGVLTQKKPFADEKNILHIMV [RIPK4], in that order: 3.25 ± 0.88 and 2.92 ± 0.67. The corresponding values for GIAQVKIQGQNKEMLAAACQMFLG [FLOT1] are 2.34 ± 0.12 and 2.69 ± 0.1. TRIHILPSMNPDGYEVAAAQGPNK [CPN1]: the protein stability index runs as follows: under setting [1], 4.13 ± 0.25; under setting [2], 4.06 ± 0.27. The corresponding values for SGRTQAQTRRASALIDRPAPYFER [EPB41L3] are 3.5 ± 0.56 and 3.72 ± 0.36.

For the sequence IGDSRPPSFHPHAGGGSQENLDND [DVL3], the protein stability index stood at 5.56 ± 0.18 under setting [1] and 5.41 ± 0.1 under setting [2].
